US20250011737A1 (ALX ONCOLOGY, published 2025)
Numbering of substitutions follows the chain as printed.

B1: SIRP-α variant construct (SEQ ID NO: 52), intact (other)
chain: QLLFNKTKSVEFTFSNDTVVIPCFVTNMEAQNTTEVYVKWKFKGRDIYTFDGALNKSTVPTDFSSAKIEVSQLLKGDASLKMDKSDAVSHTGNYTCEVTELTREGETIIELKYRVVSGGGGSGGGGSGGGGSLSGRSDNHGGGGSGGGGSEEELQIIQPDKSVLVAAGETATLRCTITSLFPVGPIQWFRGAGPGRVLIYNQRQGPFPRVTTVSDTTKRNNMDFSIRIGNITPADAGTYYCIKFRKGSPDDVEFKSGAGTELSVRAKPS
notes: uncleaved
B2: SIRP-α variant construct (SEQ ID NO: 53), intact (other)
chain: QLLFNKTKSVEFTFSNDTVVIPCFVTNMEAQNTTEVYVKWKFKGRDIYTFDGALNKSTVPTDFSSAKIEVSQLLKGDASLKMDKSDAVSHTGNYTCEVTELTREGETIIELKYRVVSGGGGSGGGGSGGGGSGGGGSLSGRSDNHGGGGSGGGGSEEELQIIQPDKSVLVAAGETATLRCTITSLFPVGPIQWFRGAGPGRVLIYNQRQGPFPRVTTVSDTTKRNNMDFSIRIGNITPADAGTYYCIKFRKGSPDDVEFKSGAGTELSVRAKPS
notes: uncleaved
B3: SIRP-α variant construct (SEQ ID NO: 54), intact (other)
chain: QLLFNKTKSVEFTFSNDTVVIPCFVTNMEAQNTTEVYVKWKFKGRDIYTFDGALNKSTVPTDFSSAKIEVSQLLKGDASLKMDKSDAVSHTGNYTCEVTELTREGETIIELKYRVVSGGGGSGGGGSGGGGSGGGGSGGGGSLSGRSDNHGGGGSGGGGSEEELQIIQPDKSVLVAAGETATLRCTITSLFPVGPIQWFRGAGPGRVLIYNQRQGPFPRVTTVSDTTKRNNMDFSIRIGNITPADAGTYYCIKFRKGSPDDVEFKSGAGTELSVRAKPS
notes: uncleaved
B4: SIRP-α variant construct (SEQ ID NO: 58), intact (other)
chain: GQLLFNKTKSVEFTFSNDTVVIPCFVTNMEAQNTTEVYVKWKFKGRDIYTFDGALNKSTVPTDFSSAKIEVSQLLKGDASLKMDKSDAVSHTGNYTCEVTELTREGETIIELKYRVVSGGGGSGGGGSGGGGSGGGGSLSGRSDNHGGGGSGGGGSEEELQIIQPDKSVLVAAGETATLRCTITSLFPVGPIQWFRGAGPGRVLIYNQRQGPFPRVTTVSDTTKRNNMDFSIRIGNITPADAGTYYCIKFRKGSPDDVEFKSGAGTELSVRAKPS
notes: uncleaved
B5: SIRP-α variant construct (SEQ ID NO: 62), intact (other)
chain: B2 chain with T102Q
notes: uncleaved
B6: SIRP-α variant construct (SEQ ID NO: 63), intact (other)
chain: B2 chain with T102H
notes: uncleaved
B7: SIRP-α variant construct (SEQ ID NO: 61), intact (other)
chain: B2 chain with L101Y
notes: uncleaved
B8: SIRP-α variant construct (SEQ ID NO: 60), intact (other)
chain: B2 chain with L101Q
notes: uncleaved
B9: SIRP-α variant construct (SEQ ID NO: 59), intact (other)
chain: GQLLFNKTKSVEFTFSNDTVVIPCFVTNMEAQNTTEVYVKWKFKGRDIYTFDGALNKSTVPTDFSSAKIEVSQLLKGDASLKMDKSDAVSHTGNYTCEVTELTREGETIIELKYRVVSGGGGSGGGGSGGGGSGGGGSGGGGSLSGRSDNHGGGGSGGGGSEEELQIIQPDKSVLVAAGETATLRCTITSLFPVGPIQWFRGAGPGRVLIYNQRQGPFPRVTTVSDTTKRNNMDFSIRIGNITPADAGTYYCIKFRKGSPDDVEFKSGAGTELSVRAKPS
notes: uncleaved
B10: SIRP-α variant construct (SEQ ID NO: 57), intact (other)
chain: GQLLFNKTKSVEFTFSNDTVVIPCFVTNMEAQNTTEVYVKWKFKGRDIYTFDGALNKSTVPTDFSSAKIEVSQLLKGDASLKMDKSDAVSHTGNYTCEVTELTREGETIIELKYRVVSGGGGSGGGGSGGGGSLSGRSDNHGGGGSGGGGSEEELQIIQPDKSVLVAAGETATLRCTITSLFPVGPIQWFRGAGPGRVLIYNQRQGPFPRVTTVSDTTKRNNMDFSIRIGNITPADAGTYYCIKFRKGSPDDVEFKSGAGTELSVRAKPS
notes: uncleaved
B11: SIRP-α variant (SEQ ID NO: 31) (receptor)
chain: EEELQIIQPDKSVLVAAGETATLRCTITSLFPVGPIQWFRGAGPGRVLIYNQRQGPFPRVTTVSDTTKRNNMDFSIRIGNITPADAGTYYCIKFRKGSPDDVEFKSGAGTELSVRAKPS
notes: also called SIRP-α variant alone
B12: SIRP-α variant construct (SEQ ID NO: 49), intact (other)
chain: SEVTELTREGETGGGGSGGGGSGGGGSLSGRSDNHGGGGSGGGGSEEELQIIQPDKSVLVAAGETATLRCTITSLFPVGPIQWFRGAGPGRVLIYNQRQGPFPRVTTVSDTTKRNNMDFSIRIGNITPADAGTYYCIKFRKGSPDDVEFKSGAGTELSVRAKPS
notes: uncleaved
B13: SIRP-α variant construct (SEQ ID NO: 50), intact (other)
chain: GQYTSEVTELTREGETIIELKGGGGSGGGGSLSGRSDNHGGGGSGGGGSEEELQIIQPDKSVLVAAGETATLRCTITSLFPVGPIQWFRGAGPGRVLIYNQRQGPFPRVTTVSDTTKRNNMDFSIRIGNITPADAGTYYCIKFRKGSPDDVEFKSGAGTELSVRAKPS
notes: uncleaved
B14: SIRP-α variant construct (SEQ ID NO: 48), intact (other)
chain: SEVTELTREGETGGGGSGGGGSLSGRSDNHGGGGSGGGGSEEELQIIQPDKSVLVAAGETATLRCTITSLFPVGPIQWFRGAGPGRVLIYNQRQGPFPRVTTVSDTTKRNNMDFSIRIGNITPADAGTYYCIKFRKGSPDDVEFKSGAGTELSVRAKPS
notes: uncleaved
B15: SIRP-α variant construct (SEQ ID NO: 51), intact (other)
chain: GQYTSEVTELTREGETIIELKGGGGSGGGGSGGGGSLSGRSDNHGGGGSGGGGSEEELQIIQPDKSVLVAAGETATLRCTITSLFPVGPIQWFRGAGPGRVLIYNQRQGPFPRVTTVSDTTKRNNMDFSIRIGNITPADAGTYYCIKFRKGSPDDVEFKSGAGTELSVRAKPS
notes: uncleaved

Molecular target: T1, human CD47-hFc (R & D Systems, catalog number 4670-CD) (human, UniProt Q08722 19-139)
T1 construct: Bought; immobilized by amine coupling on a CM4 chip (370 RU); also called CD47 on the chip; not shown: human Fc (hFc) of a bought protein
T1 sequence (Q08722 19-139 limits assumed): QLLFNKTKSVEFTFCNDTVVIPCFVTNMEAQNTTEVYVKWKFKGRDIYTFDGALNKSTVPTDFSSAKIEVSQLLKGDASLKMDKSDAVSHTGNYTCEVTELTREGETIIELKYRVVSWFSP
Test: SPR (Biacore T100), CD47-hFc immobilized on CM4 chip, intact construct injected

Row | Binder | binding result
1 | B1 | no binding (tested: 100 nM)
2 | B2 | no binding (tested: 100 nM)
3 | B3 | no binding (tested: 100 nM)

Molecular target: T1, human CD47-hFc (R & D Systems, catalog …)
Test: SPR (Biacore T100), CD47-hFc immobilized on CM4 chip, intact construct injected (FIG. 5B)

Row | Binder | binding result
4 | B4 | no binding (tested: 100 nM)
5 | B5 | no binding (tested: 100 nM)
6 | B6 | no binding (tested: 100 nM)
7 | B7 | no binding (tested: 100 nM)
8 | B8 | no binding (tested: 100 nM)
9 | B9 | no binding (tested: 100 nM)
10 | B10 | no binding (tested: 100 nM)

Molecular target: T2, CD47 IgSF domain having amino acids 1-117 and C15S, relative to wild-type CD47 (SEQ ID NO: 35) (human, UniProt Q08722 19-135)
T2 construct: in the assay it was tethered to, or released by cleavage from, the SIRP-α variant (it then still carries spacer and linker residues); also called IgSF domain of CD47
Test: inferred from SPR of cleaved constructs SEQ ID NOs: 52-54 on CD47-hFc

Row | Binder | binding result
11 | B11 | binds

Molecular target: T1, human CD47-hFc (R & D Systems, catalog …)
Test: SPR (Biacore T100), CD47-hFc immobilized on CM4 chip, intact construct at 100 nM

Row | Binder | binding result
12 | B12 | binds
13 | B13 | binds
14 | B14 | binds
15 | B15 | binds
